T1: crab-eating macaque CLDN-5 protein (crab-eating macaque, UniProt O00501 1-218 (human entry))
T1 construct: Expressed on cells by retrovirus; also called cCLDN-5; MDCKII/cCLDN-5
T1 chain: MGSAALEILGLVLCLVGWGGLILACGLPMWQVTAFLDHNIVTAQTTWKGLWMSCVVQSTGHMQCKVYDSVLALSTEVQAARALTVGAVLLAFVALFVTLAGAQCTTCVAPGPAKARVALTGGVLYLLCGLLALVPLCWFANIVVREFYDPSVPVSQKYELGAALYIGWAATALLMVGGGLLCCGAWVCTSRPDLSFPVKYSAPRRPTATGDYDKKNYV

T2: wild-type human CLDN-5 protein (human, UniProt O00501 1-218)
T2 construct: Four-transmembrane tight junction protein expressed by retrovirus on HT-1080 (or MDCKII) cells; also called hCLDN-5; human Claudin-5 protein
T2 sequence: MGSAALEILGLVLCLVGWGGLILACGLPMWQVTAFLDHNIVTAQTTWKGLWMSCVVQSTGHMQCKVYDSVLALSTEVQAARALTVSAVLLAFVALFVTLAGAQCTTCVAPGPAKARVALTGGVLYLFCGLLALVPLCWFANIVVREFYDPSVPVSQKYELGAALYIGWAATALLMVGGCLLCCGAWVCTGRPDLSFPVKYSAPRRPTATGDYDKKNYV

T3: mouse CLDN-5 protein (mouse, UniProt O54942 1-218)
T3 construct: Expressed on cells by retrovirus; also called mCLDN-5; MDCKII/mCLDN-5
T3 sequence: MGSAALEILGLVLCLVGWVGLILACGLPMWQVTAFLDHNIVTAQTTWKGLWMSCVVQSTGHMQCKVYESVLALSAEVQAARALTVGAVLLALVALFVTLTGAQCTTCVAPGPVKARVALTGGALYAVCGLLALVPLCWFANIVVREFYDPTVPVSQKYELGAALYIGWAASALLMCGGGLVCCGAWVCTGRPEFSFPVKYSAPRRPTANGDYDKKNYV

T4: mCLDN-3 protein (mouse, UniProt Q9Z0G9 1-219)
T4 construct: Expressed on cells by retrovirus; also called mouse Claudin-3 protein
T4 sequence: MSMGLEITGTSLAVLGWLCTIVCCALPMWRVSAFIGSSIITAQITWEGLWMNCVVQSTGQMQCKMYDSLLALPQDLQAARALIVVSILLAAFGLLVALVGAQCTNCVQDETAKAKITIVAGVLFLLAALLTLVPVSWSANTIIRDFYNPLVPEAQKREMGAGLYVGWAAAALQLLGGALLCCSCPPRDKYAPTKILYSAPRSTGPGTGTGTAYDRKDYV

T5: mCLDN-2 protein (mouse, UniProt O88552 1-230)
T5 construct: Expressed on cells by retrovirus; also called mouse Claudin-2 protein
T5 sequence: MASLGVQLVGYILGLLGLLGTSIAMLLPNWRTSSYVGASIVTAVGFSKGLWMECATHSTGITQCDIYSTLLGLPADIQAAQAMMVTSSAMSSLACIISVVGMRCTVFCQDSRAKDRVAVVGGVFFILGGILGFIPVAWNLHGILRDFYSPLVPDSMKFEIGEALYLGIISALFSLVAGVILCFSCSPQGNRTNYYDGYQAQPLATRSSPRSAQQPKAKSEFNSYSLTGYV

T6: mCLDN-1 protein (mouse, UniProt O88551 1-211)
T6 construct: Expressed on cells by retrovirus; also called mouse Claudin-1 protein
T6 sequence: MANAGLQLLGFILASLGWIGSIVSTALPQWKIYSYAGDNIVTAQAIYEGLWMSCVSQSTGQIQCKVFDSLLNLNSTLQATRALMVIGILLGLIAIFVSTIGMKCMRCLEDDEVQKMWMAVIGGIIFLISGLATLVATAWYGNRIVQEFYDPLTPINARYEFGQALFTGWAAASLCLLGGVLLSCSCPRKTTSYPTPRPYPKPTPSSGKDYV


Experiments:
[1] = target: T1, crab-eating macaque CLDN-5 protein; assay: FACS on CLDN-5-expressing cells, antibody 5 µg/mL
Method: (§1) The obtained CLDN-expressing cells were seeded in a 10 cm dish, and on the next day, the cells were collected. The primary antibodies (100 μL) were added to the obtained 1.0×10⁵ cells and allowed to react for 1 hour at 4° C. At this time, a mixed solution of a C-CPE mutant (C-CPEmt) and a mouse anti-His tag antibody (Abeam) used in Non-Patent Literature 3 was used as positive control. The cells were washed three times with 0.2% BSA-PBS, then mixed with 100 μL of a secondary antibody solution (FITC conjugated goat anti-mouse IgG or anti-rat IgG (Jackson Immune Research, 115-095-003 or 112-095-003) 400x diluted with 1% BSA-PBS, and allowed to react for 1 hour at 4° C. The cells were washed with 0.2% BSA-TBS and then analyzed using FACS caliber (BD Bioscience).
In the same manner as in Example 1-2), a DNA fragment consisting of a cCLDN-5 protein (SEQ ID NO: 28)-encoding sequence or an mCLDN-5 protein (SEQ ID NO: 29)-encoding sequence was inserted into a pCX4pur vector, thereby obtaining vectors for preparing a retrovirus. By using these vectors with the vector for preparing a retrovirus prepared in Example 1-2), various animal species CLDN-5 protein-expressing cells were prepared. By using these cells and the antibodies (antibody concentration: 5 μg/mL, as primary antibody), FACS assay was performed in the same manner as in 3-1).

[2] = target: T2, wild-type human CLDN-5 protein; assay: FACS saturation binding on HT-1080/hCLDN-5, one-site fit; Lot 2
Method: as §1
(§2) By using HT-1080/hCLDN-5 and 100 μL of the anti-CLDN-5 antibody at each concentration diluted with 1.0% BSA-PBS, FACS assay was performed in the same manner as in Example 3-1). […] At this time, the equation of saturation binding-one site-specific binding of Graph Pad prism 7 (Graph Pad Software) was used.

[3] = target: T2, wild-type human CLDN-5 protein; assay: FACS saturation binding on HT-1080/hCLDN-5, one-site fit; Lot 1
Method: as §1, §2

mouse CLDN-5 protein = target: T3, mouse CLDN-5 protein; assay: FACS, hybridoma supernatant on CLDN-expressing cells
Source text: (§3) By the insertion of a DNA fragment consisting of an hCLDN-1 protein (SEQ ID NO: 30)-encoding sequence, an hCLDN-2 protein (SEQ ID NO: 31)-encoding sequence, an hCLDN-3 protein (SEQ ID NO 32)-encoding sequence, an hCLDN-4 protein (SEQ ID NO: 33)-encoding sequence, an hCLDN-6 protein (SEQ ID NO: 34)-encoding sequence, an hCLDN-7 protein (SEQ ID NO: 35)-encoding sequence, an mCLDN-1 protein (SEQ ID NO: 37)-encoding sequence, an mCLDN-2 protein (SEQ ID NO: 38)-encoding sequence, an mCLDN-3 protein (SEQ ID NO: 39)—encoding sequence, or an mCLDN-5 protein (SEQ ID NO: 29)-encoding sequence, vectors for preparing a retrovirus were obtained. By using these vectors and the vector for preparing a retrovirus prepared in Example 1-2), various CLDN protein-expressing cells were prepared. By using these cells and a culture supernatant of hybridomas producing antibodies as primary antibodies, FACS assay was performed by the following method.
as §1

mCLDN-3 protein = target: T4, mCLDN-3 protein; assay: as above
Source text: as §3, §1

mCLDN-2 protein = target: T5, mCLDN-2 protein; assay: as above
Source text: as §3, §1

mCLDN-1 protein = target: T6, mCLDN-1 protein; assay: as above
Source text: as §3, §1

Binder | binding result [1] | Kd [2] [nM] | Kd [3] [nM] | binding result (mouse CLDN-5 protein) | binding result (mCLDN-3 protein) | binding result (mCLDN-2 protein) | binding result (mCLDN-1 protein)
mouse anti-CLDN-5 antibody M3 (antibody, mouse IgG2b, V domains shown, Hybridoma monoclonal; also called antibody A) VH: EVQLQQSGPELVKPGASVKISCKASGYSFTGYYMNWVKQSPEKSLEWIGDINPSTGGATYNQKFKAKATLTVDKSSSTAYMQLKSLTSEDSAVFYCALYSNYGFVYWGQGTLVTVSA VL: not shown | binds | 6.41 | 3.89 | no binding | no binding | no binding | –
rat anti-CLDN-5 antibody R14 (antibody, rat IgG2a, V domains shown, Hybridoma monoclonal; also called antibody K) VH: QVTLKESGPGILQPSHTLSLTCSFSGFSLSTYGMGVSWIRQPSGKGLEWLASIWWNGRTYTNPSLMSRLTVSKDTSTNQAFLRVTSVETADTATYYCAHTPYDYSNLGWFTYWGQGTLVTVSS VL: DILMTQTPSSQAVSAGEKVTVSCKSSQSLLYSGDQKSYLAWYQQKPGQSPKLLIYLASTRKSGVPDRFIGSGSGTDFTLTISSVQAEDLADYYCQQHYTYPLTFGSGTKLEI | binds | 8.42 | 4.66 | no binding | no binding | no binding | no binding
rat anti-CLDN-5 antibody R2 (antibody, rat IgG2a, V domains shown, Hybridoma monoclonal; also called antibody F) VH: QVQLKESGPGLVQPSQTLSLTCTVSGLSLIRNSVSWIRQPPGKGLEWMGVIWSNGGTEYNSTVKSRLSISRDTSKNQVFLKMNSLQTEDSAMFFCARTPDGYYPYFDYWGQGVMVTVSS VL: DIVLTQSPATLSVTPGESVSLSCRASQGISTSIHWYQQKSNESPRLLIRYASQSISRIPSRFSGSGSGTDFTLTINGVESEDLSVYYCQQSYNLPLTFGSGTKLEI | – | 20.7 | 20.1 | no binding | no binding | no binding | no binding
mouse anti-CLDN-5 antibody M48 (antibody, mouse IgG3, V domains shown, Hybridoma monoclonal; also called antibody E) VH: QAYLQQSGAELVRPGASVKMSCKASGYTFTSYNMHWVKKTRRQGLEWIGAISPGNGNTSYNQKFKGKATLTVDKSSSTAYMQLSSLTSEDSAVYFCARDDGYYGALDYWGQGTSVTVSS VL: DIVLTQSPATLSVTPGESVSLSCRASQGISTSIHWYQQKSNESPRLLIRYASQSISRIPSRFSGSGSGTDFTLTINGVESEDLSVYYCQQSYNLPLTFGSGTKLEI | – | 8.47 | 29.1 | – | no binding | no binding | no binding
mouse anti-CLDN-5 antibody M11 (antibody, mouse IgG2b, V domains shown, Hybridoma monoclonal; also called antibody B) VH: QVQLKQSGPGLVQPSQSLSITCTVSGFSLIRYGVHWVRQSPGKGLEWLGVKWSGGSTDYNGAFKSRLSISKDNSKSQVFFKMNSLQADDTAIYYCARGLDGYYVPDVWGTGTSVTVS VL: DIVMTQSHKFMSTSVGDRVSITCKASQDVSTNVAWYQQKPGQSPTLLIYWASTRHTGVPDRFTGSGSGTDYTLTISSVQAEDLALYYCQQHYSTPLTFGAGTKLELRR | binds | 9.68 | 8.72 | no binding | no binding | no binding | no binding

Binders with a lower Kd [2], results first:

binding result [1] | Kd [2] [nM] | Kd [3] [nM] | binding result (mouse CLDN-5 protein) | binding result (mCLDN-3 protein) | binding result (mCLDN-2 protein) | binding result (mCLDN-1 protein) | Binder
binds | 2.44 | 7.19 | no binding | no binding | no binding | no binding | rat anti-CLDN-5 antibody R3 (antibody, rat IgG2a, V domains shown, Hybridoma monoclonal; also called antibody G) VH: EVQLVESGGGLVQPGRSLKLSCAASGFTFSDYYMAWVRQAPKKGLEWVASISYEGRNTYYGDSVKGRFTISRDNAKSTLYLQMKSLRSEDTATYYCTRHPRRYFDYWGQGVMVTVSS VL: DIVMTQSPSSLAVSAGETVTMNCRSSQSLFSSGDQKKFLAWYQQKPGQSPKLLISLASTRESGVPDRFIGSGSGTDFTLTINNMQAEDLAIYYCQQHYDIPYTFGAGTKLEL
binds | 2.75 | 3.78 | – | no binding | no binding | no binding | rat anti-CLDN-5 antibody R9 (antibody, rat IgG2b, V domains shown, Hybridoma monoclonal; also called antibody I) VH: QVTLKESGPGILQPSHTLSLTCSFSGFSLNTYGVGVNWIRQPSGKGLEWLASIWWHGKTYINPSLKNRLTVSKDPSNNQAFLEVTNVDPADTATYYCAHARAQLLDYWGQGVMVTVSS VL: DIVMTQTPSSQAVSAGEKVTMSCKSSQSLLYSGDQKNYLAWYQQKPGQSPKLLIYLTSTRESGVPDRFIGSGSGTDFTLTISSVQAEDLADYYCQQHYSYPLTFGSGTKLEI
binds | 2.78 | 3.77 | no binding | no binding | no binding | no binding | mouse anti-CLDN-5 antibody M23 (antibody, mouse IgG2b, V domains shown, Hybridoma monoclonal; also called antibody C) VH: EVQLQQSGPVLVKPGPSVMISCKASGFTFTDYYMHWVKQSHGKSLEWIGLVYPYNGGTDYNQKFKGKATLTVDTSSSTAYMELNSLTSEDSAVYYCARCLYDGLYFYAMDYWGQGTSVTVSS VL: DIVMSQSPSSLAVSAGEKVTMTCKSSQSLLNSRARKNYLAWYQQKAGQSPKLLMYWASTRESGVPDRFTASGSGTDFTLTISSVQAEDLAVFYCKQSYNLPWTFGGGTKLEIKR

From patent US20200148765A1 (OSAKA UNIVERSITY, published 2020)
